Reference: the nanobody polyreactivity screen of Harvey et al. (2022)

Assay: yeast display, Sf9 membrane polyspecificity reagent, FACS + sequencing; frameworks hold sequencing errors
Procedure, shortened: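 Using colony PCR, genes from sorted yeast display clones were amplified, then sequenced on MiSeq at 2 × 250 and filtered by CDR length. The clones had been stained with 10% biotinylated, detergent-solubilized Sf9 membrane reagent for 1 hour at 4 °C and sorted by FACS into low and high (top ~1%) gates on anti-HA and streptavidin fluorescence. Polyreactivity labels come from the gate of origin.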

Sequence	polyreactivity (PSR sort gate)
QVQLVESGGGLVQAGGSLRLSCAASGITFAEYAMGWYRPAPGKERELVAAINGGGGSTYYADSVKGRFTISRDYAKNTVYFQMNSLKPEDTAVYYCAADGYPGDYDYWGQGTQVTVSS	high polyreactivity
QVQLVESGGGLVQAGGSLRLSCAASGYTFGGYAMGWYRQAPGKERELVAAISGSGVRTYYADSVKGRFTISRDNAKNTVYLQMNSLKPEDTAVYYCAKRVRYPGDRYYYWGQGTQVTVSS	high polyreactivity
QVQLVESGGGLVQAGGSLRLSCAASGSIFIYYAMGWKRQAPGKERELVAAISWRGGGTYYADSVKGRFTISRDNAKNTVYLQMNSLKPEDTAVYYCAADFYDPFDYWGQGTQVTVSS	low polyreactivity
QVQLVESGGGLVQAGGSLRLSCAASGFNFKHYAMGWYRQAPGKERELVATITRGGSTNYADSVKGRFTISRDNAKNTVYLQMNSLKPEDTAVYYCAASDYVRYPFTRGYIYQGSDYWGQGTQVTVSS	low polyreactivity
QVQLVESGGGLVQAGGSLRLSCADTGRTFSRNSMGWYIQAPGKERELVATITRGTITNYADSVKGRFTISRDNAMNTVYLQINSRKPEDTAVYYCNARTLFFPARNRCELSDYWGQGTQVTVSS	low polyreactivity
QVQLVESGGGLVQAGGSLRLSCAASGYTFSVNVMGWYRQAPGKERELVAAISGRGGRTYYADSVKGRFTISRDNAKNTVYLQMNSLKPEDTAVYYCAAVRGKPGRISYPYDYWGQGTQVTVSS	high polyreactivity
QVQLVESGGGLVQAGGSLRLSCAASGRTFWYNAMGWYRQAPGKERELVAVISSGAITYYADSVKGRFTISRDNAKNTVYLQMNSLKPEDTAVYYCAARSYLSLIDYWGQGTQVTVSS	high polyreactivity
QVQLVESGGRLVQAGGSLRLSCAASGRTFRAYVMGWYRQSPGKERELVAAISSSGGRTYYADSVKGRFTISRDNAKNTVYLQMNSLKPEDTAVYYCAAQAVRGGIGEDDYWGQGTQVTVSS	high polyreactivity
QVQLVESGGGLVQAGGSLRLSCAASGITFTGYGMGWYRQAPGKERELVAAIRLRTGSTYYADSVKGRFTISRDNAKNTVYLQMYSLKPEDTAVYYCAAAFPRYRSRAIRVDYWGQGTQVTVSS	high polyreactivity
QVHLVESGGGIVQAGGILRLSCAASGNTFYENVMGWYRQTPGKEREFVAAITYIGGNTYYADSVKGRFTISRDNAKNTVYLQMNSLKPEDTAVYYCAAEWDWPTYYTYYWYFSYDYWGQGTQVTVSS	low polyreactivity
QVHLVESGGGLVQAGRSLRLSCAASGFIFKPYAMVRYRQAPGKERELVAAITVNGGTTYYADSVKARFTISRDNAKNTVYLQMNSLKPEDTAVYYCNRGRPGGPSWYHYDYWGQGTQVTVSS	high polyreactivity
QVQLVESGGGLVQAGGSLRLSCAASGRTIAYNAMGWYRQAPGKERELVAAISWSGGSTYYADSVKGRFTISRDNAKNTVYLQMNSLKPEDTAVYYCAKRFGQYRYPYDYWGQGTQVTVSS	high polyreactivity
QVQLVESGGGLVQAGGSLRLSCAASGFIFIRYAMGWYRQAPGKERELVAAINGGGSSTYYADSVKGRFTISRDNAKNTVYLQMNSLKPEDTAVYYCAADTDSWWYYLYYGDGFDYWGQGTQVTVSS	high polyreactivity
QVQLEESGGGLVQAGGSLRLSCAASGINLTGYTMGWYRKATGKERQLVAAITYGGTSTYYADSVKGRFTISRDNAKNTVYLQMNSLKPEDTAVYYCAALYRGPRYGYWGQGTQVTVSS	high polyreactivity
QVQLVESGGGLVQAGGSLRLSCAASGSTFAYYVMGWYRQAPGKERELVAAISRGGRTYYADSVKGRFTISRDNAKNTVYLQMNSLKPEDTAVYYCAKPYHQRSAKVDYWGQGTQVTVSS	low polyreactivity
QVQLVESGGGLVQAGGSLRLSCAASGFIFYLYAMGWSRQAPGKERELVASINVSGASTRYADSVKGRFTISRDNAKNTVYLQMNSLKPEDTAVYYCAAPSRYDYWGQGTQVTVSS	low polyreactivity

Sequence	polyreactivity (PSR sort gate)
QVQLVESGGGLVQAGGSLRLSCAASGSIFSRYAMGWYRQAPGKEREVVADISQRAGSTYYADSVKGRFTISRDNAKITVYLQMNSLKPEDTAVYYCAKPEAQVGGYWGYDYWGQGTQVTVSS	high polyreactivity
QVQLVESGGGLVQAGGSLRLSCAASGRTFIFYAMGWYRQAPGKERELVAAITYSGTSTYYADSVKGRFTISRDNAKNTVYLQMNSLKPEDTAVYYCAKDGQRDANYYWGQGTQVTVSS	low polyreactivity
QVQLVESGGGLVQAGGSLRLSCAASGITFWKYAMGWYRQAPGKERELVAAISGRGGSTYYADSVKGRFTISRDNAKNTVYLQMNSLKPEDTAVYYCAVGYRGWDGYWGQGTQVTVSS	high polyreactivity
QVQLVESGGGLVQAGGSLRLSCAASGRIFYHNTMGWYRQAPGKEREFVAAISKRGGNTYYADSVKGRFTISRDNAKNTVYLQMNSLKPEDTAVYYCNRRNAWSRGEYWGQGTQVTVSS	high polyreactivity
HVQLVESGGGLVQAGGSLRLSCAASGSTFTYYAMGWYRQAPGKERELVAAITGSDGRTYYADSVKGRFTISRDNAKKTVYLEMNSLKPEDTAVYYCATDVPIREIDEFGYWGQGTQVTVSS	low polyreactivity
QVQLVESGGGLVQAGGSLRLSCAASGYTFSYYAMGWYRQAPGKERELVAAISVRGDSTYYADSVKGRFTISRDYAKNTVYLLMNSLKPEDTAVYYCAARVVRSSYVRYHYWGQGTQVTVSS	high polyreactivity
QVQLVESGGGLVQAGGSLRLSCAASGSIFGRYAMGWYRQAPGKERELVAVITSGGSTNYADSVKGRFTISRDKAKNTVYLQMNSLKPEDTAVYYCAVRPYELHRLADQPGGDDYWGQGTQVTVSS	low polyreactivity
QLQLVESGGGLVQAGGSLRLSCAASGFIFGLYDMGWYREATGKERELVAAISWSGGSTYYADSVKGRFTISRDNAKNTVYLQMNSLKPADTAVYYCNKDLYADGQYNYDYWGLGTQVTVSS	low polyreactivity
QVHLVESGGGLVQAGGSLRLSCAASGFIFVRNARGWYRQAPGKERELVARISRSGGSTYYADSVKGRFTISRDNAKNTVYLQMNSLKQEDTAVYYCAAVLQAYPRLDYWGQGTQVTVSS	high polyreactivity
QVQLVESGGGLVQAGGSLRLSCAASGSTFGPYAMGWYRQAPGKERELVAAISSRGARTYYADSVKGRFTISRDNAKNTVYLQMNSLKPEDTAVYYCANTYHGTAYDYWGQGTQVTVSS	high polyreactivity
QVKLVESGGGLVQAGCSLRISCAASGITFKNYAMGWYRQAHGKERELVAAIRSIAGRTNYADSVKGRFTISRDYANNTVYLKMNSLKPEDTAVYYFTAANRGQRSDYRGYYYWGQGTQVTVSS	high polyreactivity
QVQLVESGGGLVQAGGSLRLSCAASGIFRRYAMGWYREAPGKERELVAAISSNGGSTYYADSVKGRFTISRDNAKNTVYLQMNSLKPEDTAVYYCNADVYVWNYKYYSWGQGTQVTVSS	high polyreactivity
QVQLVESGGGLVQAGGSLRLSCAASGFTFSSNAMGWYRQAPGKERELVAAIRGSDGNTYYADSVKGRFTISRDNAKNTVYLQMNSLKPEDTAVYYCNARSYGYRTSRARYNYWGQGTQVTVSS	high polyreactivity
QVQLVESGGGLVQAGGSLRLSCAASGFIFTSNAMGWYRQAPGKERELVAAITKSGGSTYYADSVKGRFTISRDNAKNTVYLQMNSLKPEDTAVYYCATRGVRRYYKTMNYWGQGTQVTVSS	high polyreactivity
QVQLVESGGGLVQAGGSLRLSCAASGSTFGVYAMGWYRQAPGKERELVAAISWSSGSTYYADSVKGRFTISRDNAKNTVYLQLNSLKPEDTAVYYCNKDVYGYYRTGPRGYDYWGQGTQVTVSS	high polyreactivity
QVQLVESGGGLVQAGGSLRLSCAASGSTFGTYAMGWYRQAPGKERELVAAITRSGGSTYYADSVKGRFTISRDNAKNTVYLQMNSLKPEDTAVYYCAAVSKGYYYWGQGTQVTVSS	high polyreactivity
